These results are taken from patent US20250172552A1 (ANN AND ROBERT H LURIE CHILDREN S HOSPITAL OF CHICAGO, published 2025).

Read-outs that look alike come from different tables or passages of the source.

The target of assay [1] is T1, KDpeptide3.
T1 construct: Synthetic peptide (Anaspec) coated on ELISA plates at 800 ng per well; also the base peptide of substitution scans; also called Kdpep3; KD3
T1 peptide: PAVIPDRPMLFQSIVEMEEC
Kind of assay: ELISA on coated synthetic peptide.

The target in assay [2] is T2, KDpeptide2.
T2 construct: Synthetic peptide (Anaspec) coated on ELISA plates at 800 ng per well
T2 peptide: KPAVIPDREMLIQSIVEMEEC
Kind of assay: ELISA on coated synthetic peptide.

The target of assay [3] is T1, KDpeptide3. The assay is described as follows: ELISA on coated synthetic peptide. A general note: ELISA stands for enzyme-linked immunosorbent assay.
Assay [4] concerns the target T2, KDpeptide2. The assay is described as follows: ELISA on coated synthetic peptides, direct comparison.

B1: KD12-2A10 (antibody, V domains shown)
VH: EVQLVESGGGLVKPGGSLRLSCAASGFTFINAWMNWVRQAPGKGLEWVGLIKSKTDGGTIDYAAPVKGRFTISRDDSEKMLYLQMDSLKTEDTAVYYCTTMYGWKDARDYWGQGTLVTV
VL: EIVLTQSPGTLSLSPGERATLSCRASQSVSSNLAWYQQKPGQAPRVLIYGASSRATGIPDRFSGSRSGTDFTLTISRLEPEDFAVYYCQRYDNSPRTFGQGTKVEIK
As for B1, in the assay with KDpeptide3 [1], the binding result is on record as “binds”.

B2: KD9-2H6 (antibody, V domains shown)
VH: EVQLVESGGGLVKPGESLRLSCVGSGFTLTNAWMIWVRQTSGKGLEWVGRIKSKIDGGAIDYGAPVKGRFTISRDDTKNTVYLQMNSLQTDDTGVYFCTTDRYSTGYYGMDDYWGQGTLVTV
VL: SYELTQPPSVSVSPGQTATITCSGDKLGDKYSFWYQQKPGQSPVVVIYQDSKRPSGIPERFSGSNSGNTATLTISGTQAMDEADYYCQVWDTDSAVFGTGTRVTV
For B2, the binding result with KDpeptide2 [2] and with KDpeptide3 [3] was “no binding” in each case.

B3: KD10-1G3 (antibody, V domains shown)
VH: EVQLVESGGGLVQPGGSLKLSCAASGFSFSGAAMHWVRQSSGRGLEWLGRIRSKTNDYATAYAESLHGRFTISRDDAKNTAYLQMNRLKSEDTAIYYCTTVLSKGDHAVWLGPWGPGTLVTV
VL: QPVLTQPPSSSASPGESARLTCTLPSDISVAASDIYWYQQKAGSPPNFLLYDPSDSHKGQDSGVPSRFSGSRDGSANSGFLLISGVQSEDEADYYCMVWPPNTVGVVFGGGTTLTV
For the molecule B3, the binding result in the assay with KDpeptide3 [1] and with KDpeptide2 [4] was “binds” each time.

B4: KD7-1B5 (antibody, V domains shown)
VH: VQLVESGGGVVQPGRSLRLSCEASGFTFRSRAMHWVRQAPGKGLGWVAVIWYDGSNKYYADSVKGRFTISRDNSRNTLYLQMNSLRAEDTAVYYCARDLGSGFSLDYWGQGTLVTVS
VL: QSVLTQPPSVSAAPGQKVTISCSGSSSNIGNNYVSWYQQLPGTAPKLLIYDNNKRPSGIPDRFSGSKSGTSATLGITGLQTGDEADYYCGTWDSSLSAEVFGGGTKLTVLG
B4: the binding result in the assay with KDpeptide3 [1] and in the assay with KDpeptide2 [4] was “binds” each time.

B5: KD12-1G7 (antibody, V domains shown)
VH: EVQLVESGGGLVQPGGSLRLSCGASGFTVSGKYMTWARQAPEKGLEWVSAIYRGGGTYYADSVKGRFTISRDNSKNMLYLQMNSLRAEDTAVYYCGGSVMVSATDYWGQGTLVTV
VL: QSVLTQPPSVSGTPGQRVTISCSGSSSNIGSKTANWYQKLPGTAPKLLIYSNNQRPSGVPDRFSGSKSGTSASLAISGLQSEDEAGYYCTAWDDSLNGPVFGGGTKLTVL
As to B5, the binding result with KDpeptide3 [1] is reported as “binds”.

B6: KD10-1A8 (antibody, V domains shown)
VH: EVQLVESGGGLVQPGGSLRLSCAASGFTFSSYWMEWVRQAPGKGLVWVSHISSDGSVTRYVDSVKGRFTISRDNAKNTLYLQMNSLRAEDTGVYYCAKDLHWNALDVWGQGTMVTVS
VL: DIVMTQTPLSLSVTPGQPASISCKSSQSLLHNDGKTFLHWYLQKPGQSPQLLIYEVSSRFSGVPDRFSGSGSGTDFTLKISRVEAEDVGVYYCMQGIHLPPTFGGGTKVEIKR
With B6, the binding result in the assay with KDpeptide3 [1] is recorded as “binds”.

B7: KD2-1D10 (antibody, V domains shown)
VH: EVQLVESGGGLIHPGGSLRLSCAASGFTFSSYWMHWVRQAPGKGLVWVSHIKSDGSNTIYADSVKGRFTISRDNAKNTLYLQMNSLRAEDTAVYYCGRGRSLTPRSAIDYWGQGTLVTV
VL: QSALTQPPSASGSPGQSVTITCTGTSSDVGGYNYVSWYQQHPGKAPKLMIYEVSKRPSGVPDRFSGSKSGNTASLTVSGLQAEDEADYHCSSFAGDNNSPVFGGGTKLTVL
With B7, the binding result in the assay with KDpeptide3 [1] and with KDpeptide2 [4] was “binds” each time.

B8: KD9-2A4 (antibody, V domains shown)
VH: LVESGGGLVQPGGSLRLSCAASGFTFSSYAMHWVRQAPGKGLEFASAISSDGGTTYYANSVKGRFTISRDNSKNTLYLQMGSLRDEDMAVYYCARDDLSTSWDLDYWGQGTLVTV
VL: QSALTQPASVSGSPGQSITISCTGTSSDVGGYNYVSWYQQHPGKAPKLMIYDVSNRPSGVSNRFSGSKSGNTASLTISGLQAEDEADYYCSSYTISSTNVFGTGTKVTVL
Consider B8, for which the binding result with KDpeptide2 [2] and with KDpeptide3 [3] was “no binding” throughout.

B9: KD11-2E4 (antibody, V domains shown)
VH: EVQLVESGGGVVQPGESLRLSCAASGVTFSSYWMHWVRQVPGKGLVWVARINIDGTSTTYADCVKGRFTISRDNAKNTLYLQMSSLRAEDTAVYYCATERGLLSGGRWHSSHFDYWGQGTLVTVS
VL: DIQMTQSPSTLSASVGDRVTITCRASQSISSWLAWYQQKPGKAPKVLIYKTSSLESGVPSRFSGSGSGTEFTLTISSLQPDDFATYYCQQYDSSSLTWTFGQGTKVEIK
With B9, the binding result in the assay with KDpeptide3 [1] and in the assay with KDpeptide2 [4] was “binds” each time.

B10: KD3-1C10 (antibody, V domains shown)
VH: EVQLVESGGGLVQPGGSLRLSCAASGFTFSNHWMHWVRQAPGKGLLWVSRIDTGGSTTNYADSVKGRFTISRDSAKNTVYLQMNSLRAEDTAVYYCARGGLFYYGMDVWGQGTTVTV
VL: EIVLTQSPGTLSLSPGERATLSCRASQTSSSTSLAWYQQKRGQAPRLLIYGASRRATGIPDRFSGSGSGTDFTLTISRLEPEDFAVYYCQQFSGSPAYTFGQGTKVEIK
Consider B10, for which the binding result with KDpeptide3 [1] is listed as “binds”.

B11: KD7-2H5 (antibody, V domains shown)
VH: EVQLVESGGGLVQPGGSLRLSCAASGFTFSSYWMHWVRQAPGKGLVWVSRINSDGSSTSYADSVKGRFAISRDNAKNTLYLQMNSLRAEDTAVYYCARALGGWDIDYWGQGTLVTVS
VL: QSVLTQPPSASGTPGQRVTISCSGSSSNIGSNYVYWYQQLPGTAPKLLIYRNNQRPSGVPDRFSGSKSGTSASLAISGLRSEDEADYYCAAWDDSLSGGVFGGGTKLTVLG
Turning to B11, the binding result with KDpeptide3 [1] and in the assay with KDpeptide2 [4] was “binds” each time.

B12: KD1-1H8 (antibody, V domains shown)
VH: EVQLVESGGGSVQPGGSLRLSCAASGFTFSNYWMHWVRQAPGKGLVWVSRLNIDGSNTFYADSVKGRFTISRDNAKNTLYLQMNSLRAEDTAVYYCVRGGSDSGDSVPFDLWGRGTLVTVS
VL: EIVMTQSPATLSVSPGERATLSCRASQSVSSNLAWYQQNPGQAPRLLIYGASTRATGIPARFSGSGSGTEFTLTISSLQSEDFAVYYCQHYNNWPFTFGQGTKVEIK
In the case of B12, the binding result with KDpeptide3 [1] and with KDpeptide2 [4] was “binds” each time.

B13: KD5-2D7 (antibody, V domains shown)
VH: EVQLVESGGGLVQPGGSLGLSCAASGFTFSNYWMHWVRQAPGKGLVWVSRINSDGSDTSYADSVKGRFTISRDNAENTLYLHMSSLRAEDTAVYYCARELGYGDYGMDVWGKGTTVTVS
VL: QSVLTQPPSASGTPGQRVTISCSGSSSNIGSHSVIWYQQLPGTAPKLLVYSDNQRPSGVPDRFSGSKSGTSASLAISGLQSEDEADYYCAAWDDSLNHLHVVFGGGTKLTVL
Turning to B13, the binding result with KDpeptide3 [1] and with KDpeptide2 [4] was “binds” each time.

B14: KD1-2B1 (antibody, V domains shown)
VH: EVQLVESGGGLVQPGGSLRLSCAASGFTFSSYWMHWVRQAPGKGLVWVSRINNDGSSTGYADSVEGRFTISRDNAKNTLYLQINSLRAEDTAVYYCARQDGHYYYSMDVWGQGTTVTV
VL: QSALTQPRSVSGSPGQSVTISCTGTSSDVGGYNYVSWYQQHPGKAPKLMIYDVSERPSGVPARFSGSKSGNTASLTISGLQAEDEADYYCCSYAGNFRWVFGGGTKLTVL
As for B14, the binding result in the assay with KDpeptide3 [1] and with KDpeptide2 [4] was “binds” each time.
